± gives the standard deviation of the averaged measurements.
test system: ATP; assay: switch fluorescence ratio, 500 uM ATP over buffer (Cy3 cluster intensity, sum of 5 cycles each) (fold (ratio)); higher = stronger signal-on switching upon ATP binding; sequences stand for … in TCGTCGGCAGCGTCAGATGTGTATAAGAGACAGTTTTTTTTTTTTTTTTTTTTTTTTT…TC; settings: aptamer strand: ATP DNA aptamer (quencher-CACCTGGGGGAGTATTGCGGAGGAAGG + anchor), 100 nM annealed; ATP concentration: 500 uM
How it was run: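 Exposure to 500 uM ATP lasted 15 min at 22 °C before imaging, and a selection-buffer image was taken beforehand, for Cy3-labelled switching-strand clusters on a modified Illumina MiSeq flow-cell annealed to 100 nM quencher-labelled ATP aptamer. Five buffer/ATP cycles were run with NaOH stripping and re-annealing between them. The fluorescence ratio per cluster is summed target-cycle over summed buffer-cycle Cy3 intensity, averaged per switch-domain sequence. Clusters outside 100-1000 RFU were excluded.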

Point of comparison: ACGGTCCTTT, switch fluorescence ratio 0.973 ± 0.038. Against it:
- ACGGGGTATT — within error, 0.996 ± 0.028
- ACGGGGTCTA — within error, 0.993 ± 0.027
- ACGGGGTGGA — within error, 1 ± 0.037
- ACGGGGTTTG — within error, 0.995 ± 0.018
- ACGGGTACGC — within error, 1.01 ± 0.021
- ACGGGTGGCG — within error, 0.95 ± 0.11
- ACGGGTTCCA — within error, 1.08 ± 0.13
- ACGGGTTCGT — within error, 1.01 ± 0.012
- ACGGTAACGT — higher, 1.02 ± 0.0058
- ACGGTAGGGC — higher, 1.03 ± 0.013
- ACGGTATTGG — higher, 1.09 ± 0.044
- ACGGTCAGTC — within error, 1.05 ± 0.077
- ACGGTCGACT — within error, 1.05 ± 0.057
- ACGGTGTTGG — within error, 1.02 ± 0.021
- ACGGTTCCTG — within error, 1.001 ± 0.0061
- ACGGTTGGT — within error, 1.02 ± 0.012
- ACGGTTGTAC — higher, 1.1813 ± 0.001
- ACGGTTGTGG — within error, 1.01 ± 0.026
- ACGGTTTTCA — within error, 0.977 ± 0.011
- ACGTAATTGT — higher, 1.13 ± 0.061
- ACGTAATTTT — higher, 1.17 ± 0.03
- ACGTAGAAAT — higher, 1.35 ± 0.022
- ACGTAGTTTG — within error, 1.04 ± 0.033
- ACGTATTTTG — higher, 1.08 ± 0.045
- ACGTCTGAGG — within error, 1.02 ± 0.029
- ACGTGCAGTT — within error, 1.02 ± 0.012
- ACGTGCCGCA — higher, 1.079 ± 0.0088
- ACGTGCTCGT — within error, 0.991 ± 0.041
- ACGTGGGGCT — higher, 1.05 ± 0.027
- ACGTGTAGGA — within error, 1.0005 ± 0.00069
- ACGTGTAGGG — within error, 1 ± 0.025
- ACGTGTCGGT — higher, 1.028 ± 0.0037
- ACGTGTGGGG — higher, 1.05 ± 0.034
- ACGTGTTCAT — within error, 0.983 ± 0.018
- ACGTTATTTA — higher, 1.1534 ± 0.0011
- ACGTTCGCGG — within error, 0.985 ± 0.028
- ACGTTCGTTG — within error, 0.9908 ± 0.0096
- ACGTTCTGTT — within error, 1.02 ± 0.023
- ACGTTTGTTT — within error, 0.971 ± 0.049
- ACTAAACGAG — higher, 1.062 ± 0.0078
- ACTACTGGCT — higher, 1.047 ± 0.0089
- ACTACTGGGA — within error, 0.976 ± 0.041
- ACTACTTTCG — within error, 1.03 ± 0.034
- ACTAGAGCGA — within error, 1.11 ± 0.11
- ACTAGAGGAC — within error, 1 ± 0.04
- ACTAGATACG — higher, 1.04 ± 0.018
- ACTAGCGGCG — higher, 1.05 ± 0.024
- ACTAGGAATC — higher, 1.04 ± 0.019
- ACTAGGCAAG — higher, 1.13 ± 0.018
- ACTAGTGTCA — within error, 1 ± 0.04
- ACTATAGTGT — within error, 1.02 ± 0.022
- ACTATGCGGG — within error, 0.982 ± 0.017
- ACTATGGCTG — within error, 0.957 ± 0.045
- ACTATGGTTA — within error, 0.997 ± 0.055
- ACTATTACGG — higher, 1.18 ± 0.0094
- ACTCACTGGT — higher, 1.23 ± 0.043
- ACTCATGTAA — higher, 1.03 ± 0.015
- ACTCATGTT — within error, 0.996 ± 0.012
- ACTCATTTGG — within error, 1.001 ± 0.0087
- ACTCCATACA — higher, 1.21 ± 0.04
- ACTCCCGAAT — higher, 1.865 ± 0.0096
- ACTCGACAGG — higher, 1.8 ± 0.013
- ACTCGAGGAT — higher, 1.03 ± 0.013
- ACTCGCTGGG — higher, 1.11 ± 0.018
- ACTCGTGTAG — higher, 1.04 ± 0.022
- ACTCTGGGAG — within error, 1.03 ± 0.022
- ACTCTGGGGT — higher, 1.03 ± 0.015
- ACTCTGGTAA — higher, 1.065 ± 0.0032
- ACTCTTATCG — within error, 1.02 ± 0.054
- ACTCTTGTAT — higher, 1.045 ± 0.0058
- ACTGAATCCT — higher, 1.08 ± 0.028
- ACTGAGCCTG — higher, 1.056 ± 0.0083
- ACTGAGGGGG — within error, 1 ± 0.01
- ACTGCAGAAC — higher, 1.9 ± 0.34
- ACTGCCATCG — higher, 1.1 ± 0.023
- ACTGGGCCTT — higher, 1.031 ± 0.0083
- ACTGGGCGGA — within error, 0.996 ± 0.015
- ACTGGGGGAC — within error, 1.04 ± 0.036
- ACTGGGGGTG — within error, 1.07 ± 0.086
- ACTGGGTTTC — within error, 0.99 ± 0.054
- ACTGGTATAG — higher, 1.041 ± 0.0019
- ACTGGTTTTG — within error, 1.01 ± 0.022
- ACTGTAACGG — higher, 1.19 ± 0.034
- ACTGTCGCCA — higher, 1.023 ± 0.0059
- ACTGTCTAAT — within error, 1.01 ± 0.026
- ACTGTGCTTT — within error, 1.015 ± 0.0097
- ACTGTGGAAT — higher, 1.07 ± 0.022
- ACTGTGGGGA — within error, 1.01 ± 0.013
- ACTGTTTGGA — within error, 0.995 ± 0.0037
- ACTTAAAATT — within error, 0.996 ± 0.044
- ACTTAATGTA — within error, 1 ± 0.03
- ACTTAATTGT — within error, 1.07 ± 0.084
- ACTTAGGCGG — within error, 1 ± 0.011
- ACTTAGGGGA — within error, 1.02 ± 0.036
- ACTTATAATT — within error, 1.02 ± 0.027
- ACTTATCGGG — within error, 1 ± 0.029
- ACTTATTTTT — within error, 1 ± 0.019
- ACTTCAAGGA — within error, 1.04 ± 0.069
- ACTTCTAACT — higher, 1.07 ± 0.034

From the supplement of paper PMC10126150
